This note sets out measurements from publication PMC2910870 (Neuron, 2010).

Experiment in all cases: SPR
The target of assay [1] is NL1AB (rat neuroligin 1 cholinesterase-like region, with inserts A and B) (rat, UniProt Q62765 48-638).
The target of assay [2] is NL2A (rat neuroligin 2 cholinesterase-like region, with insert A) (rat, UniProt Q62888 46-612).
For assay [3], the target named is NL3A1A2 (rat neuroligin 3 cholinesterase-like region, with inserts A1 and A2) (rat, UniProt Q62889 42-633).
Chain of NL3A1A2 (rat neuroligin 3 cholinesterase-like region, with inserts A1 and A2) (Q62889 42-633): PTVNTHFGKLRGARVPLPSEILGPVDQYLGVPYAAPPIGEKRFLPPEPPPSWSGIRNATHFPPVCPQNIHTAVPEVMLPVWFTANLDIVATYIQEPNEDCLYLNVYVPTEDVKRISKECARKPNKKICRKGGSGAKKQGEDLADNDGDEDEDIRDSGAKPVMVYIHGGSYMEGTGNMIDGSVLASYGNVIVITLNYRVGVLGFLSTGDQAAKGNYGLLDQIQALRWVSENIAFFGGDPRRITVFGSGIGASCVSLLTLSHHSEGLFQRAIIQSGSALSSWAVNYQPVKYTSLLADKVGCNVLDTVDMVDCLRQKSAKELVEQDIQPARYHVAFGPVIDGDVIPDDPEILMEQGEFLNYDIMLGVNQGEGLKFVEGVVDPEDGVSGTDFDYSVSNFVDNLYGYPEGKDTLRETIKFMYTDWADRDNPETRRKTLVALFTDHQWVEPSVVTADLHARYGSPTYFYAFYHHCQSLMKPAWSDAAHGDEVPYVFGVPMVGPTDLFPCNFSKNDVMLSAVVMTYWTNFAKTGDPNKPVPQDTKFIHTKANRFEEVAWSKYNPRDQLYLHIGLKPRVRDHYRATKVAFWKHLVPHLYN

Chain of NL1AB (rat neuroligin 1 cholinesterase-like region, with inserts A and B) (Q62765 48-638): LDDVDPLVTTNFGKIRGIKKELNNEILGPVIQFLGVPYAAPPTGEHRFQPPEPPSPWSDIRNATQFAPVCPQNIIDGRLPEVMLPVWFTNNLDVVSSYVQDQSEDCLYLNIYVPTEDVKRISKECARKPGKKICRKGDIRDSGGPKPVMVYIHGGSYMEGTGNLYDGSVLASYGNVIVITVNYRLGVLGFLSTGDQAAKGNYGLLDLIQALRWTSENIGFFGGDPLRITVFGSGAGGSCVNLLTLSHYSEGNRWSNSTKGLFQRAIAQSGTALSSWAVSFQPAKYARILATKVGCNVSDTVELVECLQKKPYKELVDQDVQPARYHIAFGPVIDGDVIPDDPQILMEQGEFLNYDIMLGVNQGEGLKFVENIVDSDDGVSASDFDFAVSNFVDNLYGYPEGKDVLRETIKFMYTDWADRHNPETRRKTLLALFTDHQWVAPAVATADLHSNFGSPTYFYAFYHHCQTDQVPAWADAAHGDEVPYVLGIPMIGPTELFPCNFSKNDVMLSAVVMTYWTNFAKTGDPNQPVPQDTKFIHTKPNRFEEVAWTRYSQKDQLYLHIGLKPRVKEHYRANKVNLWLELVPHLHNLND
Chain of NL2A (rat neuroligin 2 cholinesterase-like region, with insert A) (Q62888 46-612): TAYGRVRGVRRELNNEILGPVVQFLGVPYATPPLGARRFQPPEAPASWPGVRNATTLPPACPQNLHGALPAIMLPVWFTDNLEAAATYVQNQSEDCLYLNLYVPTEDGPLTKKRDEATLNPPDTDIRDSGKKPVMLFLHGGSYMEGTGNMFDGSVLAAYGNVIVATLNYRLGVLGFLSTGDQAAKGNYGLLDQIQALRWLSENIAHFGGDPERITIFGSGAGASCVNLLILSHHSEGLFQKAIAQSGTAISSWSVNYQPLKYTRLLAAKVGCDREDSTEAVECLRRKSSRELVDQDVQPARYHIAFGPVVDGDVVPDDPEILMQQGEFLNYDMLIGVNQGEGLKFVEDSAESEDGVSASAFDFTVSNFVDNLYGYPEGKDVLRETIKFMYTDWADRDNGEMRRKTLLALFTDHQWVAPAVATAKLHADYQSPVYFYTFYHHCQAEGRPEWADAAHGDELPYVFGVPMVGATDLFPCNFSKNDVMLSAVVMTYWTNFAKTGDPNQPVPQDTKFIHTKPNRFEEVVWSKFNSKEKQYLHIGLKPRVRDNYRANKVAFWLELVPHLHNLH

B1: β-NRX1+4 (mouse β-neurexin 1 LNS domain, with splice insert 4) (domain or fragment)
chain: not shown
modifications: N-glycosylation at Asn184
Turning to B1, the values for the Kd in assay [1], in assay [2] and in assay [3] were 2.82 µM, 3.17 µM and 21 µM, respectively.

B2: β-NRX2+4 (rat β-neurexin 2 LNS domain, with splice insert 4) (domain or fragment)
chain: not shown
modifications: N-glycosylation at Asn186
Turning to B2, the Kd worked out at 5.66 µM in assay [1], 3.01 µM in assay [2] and 48 µM in assay [3].
